The source of these data is patent US20150368642A1, “LNA OLIGONUCLEOTIDE CARBOHYDRATE CONJUGATES” (HOFFMANN-LA ROCHE INC., priority 2013, published 2015).

Strand notation (5' to 3'): a small letter for the sugar, then the base; units joined by * are phosphorothioate-linked, units joined directly phosphodiester-linked; [ ] holds rarer units or linkages, { } end groups; capitals alone tell only the bases. l = locked nucleic acid (LNA); [5mC] = 5-methylcytosine; d = 2'-deoxy (DNA)

Data set [1] is described as follows: In vitro cleavage in liver homogenate. The format is in vitro ADME, NMRI mice. The following applies: 200 μg/g tissue, 24 hours at 37°. Here is the method: (§1) Liver, kidney and serum (see table below) were spiked with oligonucleotide SEQ ID NO 21 to concentrations of 200 μg/g tissue. Liver and kidney samples collected from NMRI mice were homogenized in a homogenisation buffer (0.5% Igepal CA-630, 25 mM Tris pH 8.0, 100 mM NaCl, pH 8.0 (adjusted with 1 N NaOH). The homogenates were incubated for 24 hours at 37° and thereafter the homogenates were extracted with phenol-chloroform. The content of cleaved and non cleaved oligonucleotide in the extract from liver and kidney and from the serum were determined against a standard using the above HPLC method.

Data set [2] is described as follows: In vitro cleavage in kidney homogenate. The format is in vitro ADME, NMRI mice. The following applies: 200 μg/g tissue, 24 hours at 37°. Here is the method: as §1
Data set [3] can be described thus: In vitro cleavage in serum. As to conditions: 200 μg/g. Format: in vitro ADME. The procedure:
as §1

Data set [4] deals with HBV. The experiment in a line: HBV mouse hydrodynamic tailvein injection model, HBV DNA in liver by qPCR. Format: in vivo, Balb/C mouse. The following applies: Balb/C mice, single injection 24 hours before hydrodynamic injection; SEQ ID 55 2 and 10 mg/kg, SEQ ID 56 2.7 and 13.5 mg/kg. The text has this:
An LNA oligomer can be assessed for antiviral effect in vivo in a mouse strain, such as BALB/c or C57B/6, where HBV replication can be established by hydrodynamic tail vein injection of a plasmid, such as pAAV/HBV1.3, expressing a partially repeated HBV pregenomic RNA (J Virol. 1995 October; 69(10):6158-69) or pAAV2/HBV1.3, a derivative thereof (WuxiAppTech, Wuxi, China). The injection of the plasmid in a high volume of saline, equal to 8-12% of the body mass of the mouse, will result in the accumulation and expression of the viral pregenomic RNA in the liver, subsequently leading to the establishment of an acute HBV infection. Treatment of the animals with an LNA oligomer can be initiated 1 or more days before the injection of the plasmid or 1 day after the injection of the plasmid. Delivery of the LNA oligomer in saline can be done by intravenous or subcutaneous injection.
An in vivo experiment was performed on SEQ ID 55 and SEQ ID 56, the latter being a GalNAC conjugate of the former (conj1a). The LNA compounds were tested for efficacy against HBV in the mouse hydrodynamic tailvein injection model using the Balb/C mouse strain. LNA compounds were be tested at equimolar doses; 2 and 10 mg/kg, single injection (SEQ ID 55) and at 2.7 and 13.5 mg/kg, single injection (SEQ ID 56). The LNA anti-HBV compounds were compared to saline and to entecavir, an inhibitor of the HBV reverse transcriptase. Entecavir was dosed p.o. daily at 0.1 mg/kg. Where applicable, the animals were treated with the LNA compound 24 hours before the hydrodynamic injection. Entecavir was given in daily doses as described starting 24 hours after the hydrodynamic injection. […] All the animals were monitored on a daily basis for body weight changes and clinical signs for the duration of the in vivo study. […] All the blood samples were collected in tubes containing heparin sodium The portion of the left lobe of each liver was used to determine the level of HBV DNA replication by qPCR, as copies per unit weight of liver in which the quantity of total HBV DNA level is subtracted by the quantity of pAAV2/HBV DNA level. […]
On the technique in general: Quantitative PCR measures a nucleic acid by following its amplification.

In data set [5] the test system is HBV. As to conditions: WO2011/47312; cited from earlier work.

Consider “21 (TCAGCATTGGTATTCA; LNA gapmer conjugate, pattern not given here) [compound 21]”, for which, in data set [1], the “% cleaved after 24 hrs liver homogenate” value turned out to be 83%. In data set [2], the “% cleaved after 24 hrs kidney homogenate” value was 95%. Further, in data set [3], the “% cleaved after 24 hours in serum” value is listed as 0%.
Regarding “SEQ ID NO 55: 5′-GsAsGsGscsastsasgscsasgs^mCsAsGsG-3′; HBV LNA gapmer disclosed in WO2011/47312 (lG*lA*lG*lG*dC*dA*dT*dA*dG*dC*dA*dG*l[5mC]*lA*lG*lG) [reference compound]”, the “effect on replication of HBV / HBV DNA level in the liver” value with HBV [4] is recorded as “little effect on the replication of HBV in the liver”. Moreover, in the data set on HBV [5], the “effectiveness against HBV as highlighted in the art” value is listed as “particularly effective against HBV”.
